Assay results published in article PMC5080433 (Nature Communications, 2016).

Experiments:
p97-A232E = p97-A232E (human, UniProt P55072 2-806, A232E); assay: SEC; settings: both partners purified
[1] = molecular target: T1, full-length p97 (residues 2–806), purified recombinant (human, UniProt P55072 2-806); assay: BLI; settings: both partners purified
T1 construct: p97 (VCP), human, residues 2-806; Hexamer when alone; in complex with ASPL-C it stands in heterotetramers; also called p97 hexamers; wt p97; source: E. coli BL21 DE3 Rosetta2, purified (Ni-NTA, TEV protease, SEC)

B1: ASPL-C (residues 313–553), purified recombinant (domain or fragment)
chain: VDREPVDREPVVCHPDLEERLQAWPAELPDEFFELTVDDVRRRLAQLKSERKRLEEAPLVTKAFREAQIKEKLERYPKVALRVLFPDRYVLQGFFRPSETVGDLRDFVRSHLGNPELSFYLFITPPKTVLDDHTQTLFQANLFPAALVHLGAEEPAGVYLEPGLLEHAISPSAADVLVARYMSRAAGSPSPLPAPDPAPKSEPAAEEGALVPPEPIPGTAQPVKRSLGKVPKWLKLPASKR
**Q.** Does B1 bind (p97-A232E)?
**A.** Result: binds

B2: C-terminally His-tagged full-length ASPL (residues 1–553) (natural protein, human, UniProt Q9BZE9 1-553, looked up)
chain: MAAPAGGGGSAVSVLAPNGRRHTVKVTPSTVLLQVLEDTCRRQDFNPCEYDLKFQRSVLDLSLQWRFANLPNNAKLEMVPASRSREGPENMVRIALQLDDGSRLQDSFCSGQTLWELLSHFPQIRECLQHPGGATPVCVYTRDEVTGEAALRGTTLQSLGLTGGSATIRFVMKCYDPVGKTPGSLGSSASAGQAAASAPLPLESGELSRGDLSRPEDADTSGPCCEHTQEKQSTRAPAAAPFVPFSGGGQRLGGPPGPTRPLTSSSAKLPKSLSSPGGPSKPKKSKSGQDPQQEQEQERERDPQQEQERERPVDREPVDREPVVCHPDLEERLQAWPAELPDEFFELTVDDVRRRLAQLKSERKRLEEAPLVTKAFREAQIKEKLERYPKVALRVLFPDRYVLQGFFRPSETVGDLRDFVRSHLGNPELSFYLFITPPKTVLDDHTQTLFQANLFPAALVHLGAEEPAGVYLEPGLLEHAISPSAADVLVARYMSRAAGSPSPLPAPDPAPKSEPAAEEGALVPPEPIPGTAQPVKRSLGKVPKWLKLPASKR
notes: ASPL, human, residues 1-553; cDNA from the Mammalian Gene Collection; also called ASPL-His; source: E. coli BL21 DE3 Rosetta2, purified (glutathione-Sepharose, TEV cleavage, SEC); not shown: His, C-terminal, kept; GST, N-terminal, cleaved
**Q.** B2 was tested. Which Kd [1] did it give?
**A.** The Kd was ~2 nM.
